B1: ZmaN (protein)
chain: MSKEIKCVVWDLDCTIWDGVLLESGTVTLKPGIYEIICELDRRGILQSVASKNNYEDAIAKLREFGIEEYFLYPEIHWNSKSSSIEKIRKNLNIGIDTFAFIDDQPFELEEVQSVHNDILCIHVNEYKSLLDLPRLQPKRITEDSGRRRLMYLENLKRTKDEEEYEGPKEEFLASLGMNFVISEAREEDLQRAEELTVRTNQLNSTGITYDYDELNYYRNHPDYLLLVCELSDKYGSYGKIGLTLVKRTEEADCLKLLLMSCRVMSRGVGTILLTYLMERTKQAGKRFLAEFRQTDRNRMMFVTYRLAGFKETSNENGILILEHNLENINPYPHYINIQFPETPTDVDRGEVEICNKQL

How the values were obtained:
holo-ZmaD [1] = test system: holo-ZmaD
holo-ZmaH [2] = test system: holo-ZmaH
holo-ZmaD [3] = target: T1, holo-ZmaD
T1 chain: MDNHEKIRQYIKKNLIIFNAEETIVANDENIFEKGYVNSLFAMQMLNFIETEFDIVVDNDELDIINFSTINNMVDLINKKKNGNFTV

holo-ZmaH [4] = target: holo-ZmaH; remark: listed apart in the source

| Molecule | aminoacylation of holo-ZmaD (holo-ZmaD replaced holo-ZmaH) (holo-ZmaD [1]) | formation of seryl-ZmaH (HPLC elution shift and MS mass of holo-ZmaH) (holo-ZmaH [2]) | formation of glyceryl-ZmaD (HPLC elution shift and MALDI-TOF MS mass shift of holo-ZmaD) (holo-ZmaD [3]) | rate of holo-ZmaD modification, with 3-PGPK (holo-ZmaD [3]) | rate of holo-ZmaD modification, without 3-PGPK (holo-ZmaD [3]) | formation of glyceryl-ACP (control reaction in which holo-ZmaH replaced holo-ZmaD) (holo-ZmaH [4]) |
| --- | --- | --- | --- | --- | --- | --- |
| ZmaJ | ZmaJ was not able to aminoacylate holo-ZmaD | Incubation of holo-ZmaH with ZmaJ, L-Ser, and ATP resulted in a change in the holo-ZmaH elution time from the HPLC, and the mass of the purified product was consistent with the formation of seryl-ZmaH | – | – | – | – |
| B1 | – | – | The mass of holo-ZmaD had shifted to be consistent with the formation of glyceryl-ZmaD | 1.44 nmol min-1 with 3-PGPK | 0.08 nmol min-1 without 3-PGPK | holo-ZmaH was not a substrate for ZmaN-catalyzed formation of glyceryl-ACP |

Source: US20080254508
